Data from article PMC8266636, “Rrp1 translocase and ubiquitin ligase activities restrict the genome destabilising effects of Rad51 in fission yeast” (Nucleic Acids Research, 2020).

Tests used:
[1] = molecular target: T1, Rrp1-FLAG (purified recombinant) (S. pombe, UniProt O13762 1-897); assay: co-IP; purified Rad51 and FLAG-tagged Rrp1 (250 nM each) in IP buffer (35 mM Tris-HCl pH 7.5, 1 mM DTT, 100 mM NaCl, 3.5 mM MgCl2, 0.1% NP-40, 5% glycerol), 30 min at 30°C; precipitated with anti-FLAG M2 affinity gel 2 h at 4°C, eluted with 3xFLAG peptide, western blot; conditions: both partners purified
T1 construct: Rrp1 of Schizosaccharomyces pombe, rrp1+ in pGEX-6P; only the former was removed'; read here as GST-Rrp1-3xFLAG; GST removed with HRV-3C protease; also called purified Rrp1-FLAG; FLAG-tagged Rrp1; source: E. coli Rosetta, from pGEX-6P, purified (GSH sepharose, HiTrap Heparin, Resource Q, HiTrap SP); not shown: GST, N-terminal, cleaved; 3xFLAG, C-terminal, kept
T1 sequence (looked up): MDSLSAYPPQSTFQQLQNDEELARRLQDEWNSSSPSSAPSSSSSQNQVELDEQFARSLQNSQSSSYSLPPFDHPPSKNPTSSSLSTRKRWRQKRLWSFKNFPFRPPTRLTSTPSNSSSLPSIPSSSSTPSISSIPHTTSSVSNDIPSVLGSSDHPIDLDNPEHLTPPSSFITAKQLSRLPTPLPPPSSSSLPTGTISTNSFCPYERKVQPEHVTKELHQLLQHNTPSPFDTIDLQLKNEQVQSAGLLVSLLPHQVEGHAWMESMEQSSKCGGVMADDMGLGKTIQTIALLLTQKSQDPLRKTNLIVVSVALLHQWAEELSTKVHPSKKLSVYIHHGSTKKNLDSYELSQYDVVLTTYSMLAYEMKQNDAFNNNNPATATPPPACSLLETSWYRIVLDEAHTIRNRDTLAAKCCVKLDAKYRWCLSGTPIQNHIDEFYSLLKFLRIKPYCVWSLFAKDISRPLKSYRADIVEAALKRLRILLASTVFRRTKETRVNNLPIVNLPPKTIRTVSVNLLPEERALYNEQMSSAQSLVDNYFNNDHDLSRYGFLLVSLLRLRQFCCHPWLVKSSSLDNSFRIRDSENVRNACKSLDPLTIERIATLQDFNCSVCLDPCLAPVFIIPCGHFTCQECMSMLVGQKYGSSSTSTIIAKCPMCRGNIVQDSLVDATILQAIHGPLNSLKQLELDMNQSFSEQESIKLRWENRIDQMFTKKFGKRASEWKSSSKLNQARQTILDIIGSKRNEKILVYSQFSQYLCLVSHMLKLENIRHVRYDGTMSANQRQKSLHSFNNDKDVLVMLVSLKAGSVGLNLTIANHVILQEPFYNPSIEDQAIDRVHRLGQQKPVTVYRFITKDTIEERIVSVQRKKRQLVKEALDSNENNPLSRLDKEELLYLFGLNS

Rad51 = molecular target: T2, Rad51 (Schizosaccharomyces pombe, UniProt P36601 1-365); assay: fluorescence anisotropy; 2 mM ATP; 3.5 mM Mg2+; 6 uM Rad51; scavenger ssDNA for koff; EMSA: 25 mM HEPES pH 7.5, 1 mM DTT, 60 mM KCl, 2 mM ATP, 3.5 mM MgCl2, 5% glycerol, 37 C, 0.2% glutaraldehyde; anisotropy: 30 mM HEPES pH 7.5, 1 mM DTT, 50 mM NaCl, 100 mM KCl, 2 mM ATP, 8 mM PC, 8 U/ml CPK, 3.5 mM MgCl2, 2.5% glycerol, 37 C; conditions: protein: recombinant; label: 5'-TAMRA on 16A(-); blunt
T2 sequence: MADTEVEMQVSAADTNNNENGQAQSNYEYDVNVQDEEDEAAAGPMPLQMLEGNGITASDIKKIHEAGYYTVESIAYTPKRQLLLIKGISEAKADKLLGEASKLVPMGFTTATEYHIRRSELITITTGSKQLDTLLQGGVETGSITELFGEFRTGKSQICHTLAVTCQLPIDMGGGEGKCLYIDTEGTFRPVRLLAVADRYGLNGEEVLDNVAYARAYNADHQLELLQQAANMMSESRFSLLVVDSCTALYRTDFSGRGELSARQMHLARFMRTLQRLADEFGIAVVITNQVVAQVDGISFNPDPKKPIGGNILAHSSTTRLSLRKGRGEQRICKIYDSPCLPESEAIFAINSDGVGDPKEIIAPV

Rrp1;Rad51 = molecular target: T3, Rrp1;Rad51 (Schizosaccharomyces …, UniProt O13762;P36601 1-897;1-365, |); assay: fluorescence anisotropy; 2 mM ATP; 3.5 mM Mg2+; scavenger PhiX174 ssDNA; EMSA: 25 mM HEPES pH 7.5, 1 mM DTT, 60 mM KCl, 2 mM ATP, 3.5 mM MgCl2, 5% glycerol, 37 C, 0.2% glutaraldehyde; anisotropy: 30 mM HEPES pH 7.5, 1 mM DTT, 50 mM NaCl, 100 mM KCl, 2 mM ATP, 8 mM PC, 8 U/ml CPK, 3.5 mM MgCl2, 2.5% glycerol, 37 C; conditions: protein: recombinant;recombinant; tags: 3xFLAG (methods: N-terminal 3xFLAG and C-terminal GST, but construct named GST-Rrp1-FLAG); GST removed by HRV-3C;; single strand
T3 sequence 1: T1 sequence (looked up)
T3 sequence 2: T2 sequence

B1: Rad51 (purified) (natural protein, S. pombe, UniProt P36601 1-365, looked up)
chain: T2 sequence
notes: Rad51 of Schizosaccharomyces pombe; also called purified Rad51
B1: binds [1].

B2: 16A(-)/16A(+) 83-mer dsDNA (dsDNA)
DNA 1: AAATGAACATAAAGTAAATAAGTATAAGGATAATACAAAATAAGTAAATGAATAAACATAGAAAATAAAGTAAAGGATATAAA
DNA 2: TTTATATCCTTTACTTTATTTTCTATGTTTATTCATTTACTTATTTTGTATTATCCTTATACTTATTTACTTTATGTTCATTT
B2: binds (Rad51).

B3: oligo-dT 72-mer (ssDNA)
DNA: TTTTTTTTTTTTTTTTTTTTTTTTTTTTTTTTTTTTTTTTTTTTTTTTTTTTTTTTTTTTTTTTTTTTTTTT
B3: binds (Rrp1;Rad51).
